Data from patent JP2014141434A (dated 2014).

What was measured:
[1] = target: T1, マウスROBO4 (pCI−mROBO4導入細胞) (mouse, UniProt Q8C310 28-1012); test: flow cytometry, transfected HEK293 cells
T1 construct: also called mouse ROBO4; mROBO4
T1 sequence: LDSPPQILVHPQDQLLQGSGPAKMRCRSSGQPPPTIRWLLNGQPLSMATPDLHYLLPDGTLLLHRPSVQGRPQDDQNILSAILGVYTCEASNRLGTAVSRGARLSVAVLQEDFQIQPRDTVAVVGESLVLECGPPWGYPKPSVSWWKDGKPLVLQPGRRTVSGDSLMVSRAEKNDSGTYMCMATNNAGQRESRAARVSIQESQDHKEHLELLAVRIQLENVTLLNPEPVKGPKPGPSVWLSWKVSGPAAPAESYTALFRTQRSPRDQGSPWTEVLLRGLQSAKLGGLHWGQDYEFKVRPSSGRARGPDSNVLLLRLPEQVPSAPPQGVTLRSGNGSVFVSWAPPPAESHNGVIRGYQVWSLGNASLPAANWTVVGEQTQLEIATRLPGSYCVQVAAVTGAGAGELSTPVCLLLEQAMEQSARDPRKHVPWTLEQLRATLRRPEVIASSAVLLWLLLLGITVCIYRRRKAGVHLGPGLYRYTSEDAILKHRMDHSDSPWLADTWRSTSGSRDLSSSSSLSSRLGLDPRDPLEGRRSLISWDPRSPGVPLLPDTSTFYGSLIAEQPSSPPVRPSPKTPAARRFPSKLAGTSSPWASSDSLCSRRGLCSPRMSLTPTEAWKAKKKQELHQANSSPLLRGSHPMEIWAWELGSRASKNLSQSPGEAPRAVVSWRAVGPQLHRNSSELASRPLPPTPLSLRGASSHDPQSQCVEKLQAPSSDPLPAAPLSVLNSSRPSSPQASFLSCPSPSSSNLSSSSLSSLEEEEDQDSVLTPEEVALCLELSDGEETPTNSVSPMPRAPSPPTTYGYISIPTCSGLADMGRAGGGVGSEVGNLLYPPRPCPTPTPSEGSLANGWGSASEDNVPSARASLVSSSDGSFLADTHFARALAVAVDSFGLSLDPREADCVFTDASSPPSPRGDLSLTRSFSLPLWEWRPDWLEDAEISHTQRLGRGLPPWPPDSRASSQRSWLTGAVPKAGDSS

[2] = target: T2, N末端FLAG−tag付加型ヒトROBO1 (human, UniProt Q9Y6N7 58-1651); test: flow cytometry, transfected HEK293 cells
T2 construct: also called hROBO1; pCI−FLAG−hROBO1

[3] = target: T3, ヒトROBO3 (human, UniProt Q96MS0 21-1386); test: flow cytometry, transfected HEK293 cells
T3 construct: also called hROBO3; pCI−hROBO3
T3 sequence: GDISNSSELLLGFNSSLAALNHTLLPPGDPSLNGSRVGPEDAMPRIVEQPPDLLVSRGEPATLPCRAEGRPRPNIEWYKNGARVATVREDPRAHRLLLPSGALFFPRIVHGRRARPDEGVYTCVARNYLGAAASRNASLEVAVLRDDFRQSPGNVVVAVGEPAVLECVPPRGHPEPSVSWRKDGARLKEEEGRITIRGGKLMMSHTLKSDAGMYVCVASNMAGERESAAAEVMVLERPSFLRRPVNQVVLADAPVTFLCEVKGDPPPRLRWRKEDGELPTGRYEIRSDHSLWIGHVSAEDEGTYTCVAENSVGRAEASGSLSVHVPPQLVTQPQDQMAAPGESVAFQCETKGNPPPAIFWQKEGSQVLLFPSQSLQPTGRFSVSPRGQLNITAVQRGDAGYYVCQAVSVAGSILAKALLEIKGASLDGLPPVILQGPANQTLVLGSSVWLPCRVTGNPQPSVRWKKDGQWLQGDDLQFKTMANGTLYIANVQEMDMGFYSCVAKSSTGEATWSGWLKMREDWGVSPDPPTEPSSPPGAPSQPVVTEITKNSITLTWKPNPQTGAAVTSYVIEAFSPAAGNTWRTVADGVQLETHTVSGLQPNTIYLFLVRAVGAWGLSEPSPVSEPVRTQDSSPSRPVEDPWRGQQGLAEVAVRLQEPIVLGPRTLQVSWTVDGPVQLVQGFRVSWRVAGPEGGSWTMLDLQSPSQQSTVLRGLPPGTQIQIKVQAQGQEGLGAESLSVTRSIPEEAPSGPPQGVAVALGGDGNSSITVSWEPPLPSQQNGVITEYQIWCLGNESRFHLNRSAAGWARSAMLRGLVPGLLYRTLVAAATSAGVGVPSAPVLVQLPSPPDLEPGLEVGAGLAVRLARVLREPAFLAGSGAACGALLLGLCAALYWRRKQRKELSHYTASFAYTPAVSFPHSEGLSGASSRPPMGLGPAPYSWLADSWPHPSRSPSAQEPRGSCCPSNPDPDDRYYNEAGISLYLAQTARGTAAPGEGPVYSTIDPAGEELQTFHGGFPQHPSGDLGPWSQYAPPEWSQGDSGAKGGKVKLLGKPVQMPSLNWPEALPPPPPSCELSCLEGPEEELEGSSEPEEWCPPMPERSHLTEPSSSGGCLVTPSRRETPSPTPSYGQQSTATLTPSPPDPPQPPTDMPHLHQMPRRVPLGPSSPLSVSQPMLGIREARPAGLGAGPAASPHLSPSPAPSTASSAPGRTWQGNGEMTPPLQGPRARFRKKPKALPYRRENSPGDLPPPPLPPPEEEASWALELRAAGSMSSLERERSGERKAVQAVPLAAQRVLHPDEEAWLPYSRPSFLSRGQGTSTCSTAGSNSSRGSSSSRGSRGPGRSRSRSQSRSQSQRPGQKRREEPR

[4] = target: T4, rROBO4−ECD (ヒトROBO4細胞外領域ポリペプチド) (human, UniProt Q8WZ75 28-461); test: SPR, Biacore 3000; antibody captured by anti-human IgG on CM5 chip, rROBO4-ECD (0.1-200 nM) as analyte, 1:1 model
T4 construct: It was cloned in pEF6/V5-His-TOPO; also called ヒトROBO4−ECD; rROBO4-ECD
T4 sequence: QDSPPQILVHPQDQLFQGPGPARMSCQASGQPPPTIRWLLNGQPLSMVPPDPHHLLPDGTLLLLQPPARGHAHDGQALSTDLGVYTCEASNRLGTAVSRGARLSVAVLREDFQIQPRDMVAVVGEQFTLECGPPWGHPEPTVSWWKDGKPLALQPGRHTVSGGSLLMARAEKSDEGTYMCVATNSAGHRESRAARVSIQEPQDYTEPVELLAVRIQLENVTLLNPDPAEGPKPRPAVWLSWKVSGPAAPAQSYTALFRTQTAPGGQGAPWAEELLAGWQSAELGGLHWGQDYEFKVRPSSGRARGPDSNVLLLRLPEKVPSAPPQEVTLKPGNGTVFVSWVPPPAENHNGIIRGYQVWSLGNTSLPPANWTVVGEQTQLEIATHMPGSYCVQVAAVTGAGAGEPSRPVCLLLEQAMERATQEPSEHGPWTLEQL

T2 sequence (Q9Y6N7 other isoform, or with tags, fused parts or gaps): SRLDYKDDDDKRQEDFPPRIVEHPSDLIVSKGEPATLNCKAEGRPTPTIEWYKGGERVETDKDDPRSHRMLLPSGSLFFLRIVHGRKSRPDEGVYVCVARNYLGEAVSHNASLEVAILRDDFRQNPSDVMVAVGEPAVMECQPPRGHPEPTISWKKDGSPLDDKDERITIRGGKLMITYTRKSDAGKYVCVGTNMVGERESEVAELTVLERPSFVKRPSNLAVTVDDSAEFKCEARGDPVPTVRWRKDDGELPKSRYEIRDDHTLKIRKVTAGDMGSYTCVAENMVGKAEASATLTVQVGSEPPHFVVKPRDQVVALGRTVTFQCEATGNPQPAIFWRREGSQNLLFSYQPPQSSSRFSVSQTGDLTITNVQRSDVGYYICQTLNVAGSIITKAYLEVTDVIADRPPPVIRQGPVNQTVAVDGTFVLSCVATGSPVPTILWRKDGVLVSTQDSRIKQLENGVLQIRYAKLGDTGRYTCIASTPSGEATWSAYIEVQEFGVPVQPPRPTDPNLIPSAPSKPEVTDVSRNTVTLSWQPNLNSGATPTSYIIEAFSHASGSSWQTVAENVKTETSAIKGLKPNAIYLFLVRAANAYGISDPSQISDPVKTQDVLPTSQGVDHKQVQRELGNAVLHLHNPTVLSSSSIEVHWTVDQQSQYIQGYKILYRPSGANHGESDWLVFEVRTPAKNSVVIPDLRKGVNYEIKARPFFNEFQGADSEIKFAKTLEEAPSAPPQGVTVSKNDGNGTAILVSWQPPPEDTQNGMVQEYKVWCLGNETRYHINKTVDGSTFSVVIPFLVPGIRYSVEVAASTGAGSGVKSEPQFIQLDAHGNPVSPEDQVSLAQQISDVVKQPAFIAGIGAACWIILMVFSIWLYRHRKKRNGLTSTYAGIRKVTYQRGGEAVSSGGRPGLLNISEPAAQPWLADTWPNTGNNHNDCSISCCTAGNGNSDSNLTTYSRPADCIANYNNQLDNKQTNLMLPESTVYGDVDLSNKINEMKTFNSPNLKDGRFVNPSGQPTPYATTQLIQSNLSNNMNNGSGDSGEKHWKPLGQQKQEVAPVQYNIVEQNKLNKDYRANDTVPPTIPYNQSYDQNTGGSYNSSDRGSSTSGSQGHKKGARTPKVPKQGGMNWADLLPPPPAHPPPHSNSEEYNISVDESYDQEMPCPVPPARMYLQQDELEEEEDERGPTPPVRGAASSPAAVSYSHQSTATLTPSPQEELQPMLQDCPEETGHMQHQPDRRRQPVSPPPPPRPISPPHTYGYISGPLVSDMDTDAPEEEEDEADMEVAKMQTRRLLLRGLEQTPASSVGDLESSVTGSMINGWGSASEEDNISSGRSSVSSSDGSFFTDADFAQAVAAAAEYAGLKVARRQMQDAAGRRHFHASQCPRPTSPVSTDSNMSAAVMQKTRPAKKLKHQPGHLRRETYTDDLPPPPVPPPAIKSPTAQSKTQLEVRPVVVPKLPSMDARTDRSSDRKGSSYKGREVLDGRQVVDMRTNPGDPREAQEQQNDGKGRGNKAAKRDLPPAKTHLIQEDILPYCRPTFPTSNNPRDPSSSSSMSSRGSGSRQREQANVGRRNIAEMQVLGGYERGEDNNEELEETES

Binder | binding result [1] | binding result [2] | binding result [3] | Kd [4] [nM]
抗ROBO4マウスモノクローナル抗体 MAb1 (antibody, V domains shown, Mouse IgG1 (gamma 1) / kappa from a hybridoma; The constant regions are not in the listing; also called MAb1) VH: EVQLVESGGGLVKPGGSLKLSCAASGFTFSTYAMSWVRQTPEKRLEWVATISNGGTYTYYPDSVKGRFTISRDNAENTLYLQMSSLRSEDTAMYFCARLIYYDYLDYWGHGTTLTVSS VL: DAVMTQTPLSLPVSLGDQASISCRSSQSLENSNGNTYLNWYFQKPGQSPQLLIYRVSNRFSGVLDRFSGSGSGTDFTLKISRVEAEDFGVYFCLQVTHVPWTFGGGTKLEIKR | no binding (tested: 10 μg/mL) | no binding (tested: 10 μg/mL) | no binding (tested: 10 μg/mL) | –
ヒト化MAb1抗体 H−2143 (antibody, human IgG2, kappa, V domains shown, Humanised IgG2 / kappa; also called H-2143; hMAb1-H4 / hMAb1-L2) VH: EVQLVESGGGLVQPGGSLRLSCAASGFTFSTYAMSWVRQAPGKRLEWVATISQGGTYTYYPDSVKGRFTISRDNAKNTLYLQMNSLRAEDTAVYYCARLIYYDYLDYWGQGTLVTVSS VL: DIVMTQSPLSLPVTLGEPASISCRSSQSLENENKNLYLNWYLQKPGQSPQLLIYRVSNRFSGVPDRFSGSGSGTDFTLKISRVEAEDVGVYYCLQVTHVPWTFGPGTKVDIKR | no binding (tested: 10 μg/mL (method of 4)-3-2)) | no binding (tested: 10 μg/mL (method of 4)-4-2)) | no binding (tested: 10 μg/mL (method of 4)-4-2)) | 1.7
ヒト化MAb1抗体 H−2140 (antibody, human IgG2, kappa, V domains shown, Humanised IgG2 / kappa; also called H-2140; hMAb1-H4 / hMAb1-L1) VH: EVQLVESGGGLVQPGGSLRLSCAASGFTFSTYAMSWVRQAPGKRLEWVATISQGGTYTYYPDSVKGRFTISRDNAKNTLYLQMNSLRAEDTAVYYCARLIYYDYLDYWGQGTLVTVSS VL: DIVMTQSPLSLPVTLGEPASISCRSSQSLENSNGNTYLNWYLQKPGQSPQLLIYRVSNRFSGVPDRFSGSGSGTDFTLKISRVEAEDVGVYYCLQVTHVPWTFGPGTKVDIKR | no binding (tested: 10 μg/mL (method of 4)-3-2)) | no binding (tested: 10 μg/mL (method of 4)-4-2)) | no binding (tested: 10 μg/mL (method of 4)-4-2)) | 1.8
ヒト化MAb1抗体 H−1143 (antibody, human IgG2, kappa, V domains shown, Humanised IgG2 / kappa; also called H-1143; hMAb1-H2 / hMAb1-L2) VH: EVQLVESGGGLVQPGGSLRLSCAASGFTFSTYAMSWVRQAPGKGLEWVATISQGGTYTYYPDSVKGRFTISRDNAKNTLYLQMNSLRAEDTAVYYCARLIYYDYLDYWGQGTLVTVSS VL: DIVMTQSPLSLPVTLGEPASISCRSSQSLENENKNLYLNWYLQKPGQSPQLLIYRVSNRFSGVPDRFSGSGSGTDFTLKISRVEAEDVGVYYCLQVTHVPWTFGPGTKVDIKR | no binding (tested: 10 μg/mL (method of 4)-3-2)) | no binding (tested: 10 μg/mL (method of 4)-4-2)) | no binding (tested: 10 μg/mL (method of 4)-4-2)) | 3.5
